assay: soluble on expression in E. coli; label from the status in PepcDB or PDB records

With “MGSDKIHHHHHHMTDLEHQVFTQVRAIIANEEQVIGRRGILIPLKKAIIADGDIRNVIDIVSSDPALAAHLLWRSNSAANASVSSKNRSLKDALVRLGQVNIYRYAFTFYLKERLDELPQPYKKLVYGYWALTESIATDAVDSLHHMEGVNINPDEVQTLALFSVFGEIIALTAFAYLNAESEQSFPLSIIKSLIDNQKQTLTLEAFESLGLDEELREEFMIAHNLRQTRNPDSPGLVLRRVLSMRNQLLNPL” as the sequence, how does the “soluble on expression in E. coli” value read?
Its value is “not soluble”.

For “AEGGFLEDAKTDLVLRNYYFNRDFRDHDAGKSLVDEWAQGFILKFSSGYTPGTVGVGLDAIGLFGVKLNSGRGTSNSELLPLHDDGRAADNYGRVGVAAKLRVSASELKIGEMLPDIPLLRYDDGRLLPQTFRGFAVVSRELPGLALQAGRFDAVSLRNSADMQDLSAWSAPTQKSDGFNYAGAEYRFNRERTQLGLWHGQLEDVYRQSYANLLHKQRVGDWTLGANLGLFVDRDDGAARAGEIDSHTVYGLFSAGIGLHTFYLGLQKVGGDSGWQSVYGSSGRSMGNDMFNGNFTNADERSWQVRYDYDFVGLGWPGLIGMVRYGHGSNATTKAGSGGKEWERDVELGYTVQSGPLARLNVRLNHASNRRSFNSDFDQTRLVVSYPLSW”, which “soluble on expression in E. coli” value is on record?
Its value is “soluble”.

Which “soluble on expression in E. coli” value does the source give for “MKYRVETNPFSKDRYNPEQLEMFKNRQLSKDKAEVFFTRLYNQHIAWVIIANVMTEYVIKFRKSATSFEEAWDALDYQRTTEIVFRAVNGLPCSEKDSGELETYLSEEQHEKH” here?
The value was “not soluble”.

With “MGSDKIHHHHHHMNNIIVGMGEALWDVLPEGKKIGGAPANFAYHVSQFGFDSRVVSAVGNDELGDEIMEVFKEKQLKNQIERVDYPTGTVQVTLDDEGVPCYEIKEGVAWDNIPFTDELKRLALNTRAVCFGSLAQRNEVSRATINRFLDTMPDIDGQLKIFDINLRQDFYTKEVLRESFKRCNILKINDEELVTISRMFGYPGIDLQDKCWILLAKYNLKMLILTCGINGSYVFTPGVVSFQETPKVPVADTVGAGDSFTAAFCASILNGKSVPEAHKLAVEVSAYVCTQSGAMPELPVILKDRLL” as the sequence, how does the “soluble on expression in E. coli” value read?
Its value is “not soluble”.

With “MNAPLRFGPYAVSRFVDGVYKAPVGHLIHRQGAVALAAVVAGLEGETVDMDVNCFALSGPDGVWLIDAGCGTAWGAAYGHARAAMLAAGIQPDDVSRVILTHIHGDHALGLIDGDRPYFPNAEIWVPEADLAFFTNADARKTLPPARQGGFDLAARLLDICGAMLRPIPTGTVAEDIEAIAMPGHTPGHMGYLIGSGDARLLLWGDVLHVGELQAADPEIAFVYDIDSELAYATRLAALAEAADHGWLVSGGHLGGFFHIERRGDSFRFVPQPG” as the sequence, how does the “soluble on expression in E. coli” value read?
The value was “not soluble”.

With “MPPIPEPEIDPVLKELLYAYSVISRARRYAGMAGVPLPLSLTEINEYLATHPVLIERDEFEAVIFALDDQYFQEQCV” as the sequence, how does the “soluble on expression in E. coli” value read?
The value was “not soluble”.

With “MGWCVMAVLVDSETRVLVQGITGREGSFHAKAMLEYGTKVVAGVTPGKGGSEVHGVPVYDSVKEALAEHPEINTSIVFVPAPFAPDAVYEAVDAGIRLVVVITEGIPVHDTMRFVNYARQKGATIIGPNCPGAITPGQAKVGIMPGHIFKEGGVAVVSRSGTLTYEISYMLTRQGIGQSTVIGIGGDPIVGLSFTEALKLFQEDPQTEALVLIGEIGGDMEERAAEMIKKGEFTKPVIAYIAGRTAPPEKRMGHAGAIIMMGTGTYEGKVKALREAGVEVAETPFEVPELVRKALRR” as the sequence, how does the “soluble on expression in E. coli” value read?
Its value is “soluble”.

With “MSIFNGIKEEQMDILREVGNIGAGHSASAMAQLLNRKIDMEVPFAKLLSFDELVDFFGGADVPVASIFLRMEGDLTGSMFFIMPFFQAEQFIRELIGNPDFDIEDLGEDHMSSSALHELGNILAGSYLTALADLTKLQLYPSVPEVSLDMFGAVISEGLMELSQVGEHAIVVDTSIFDQSHQQELKAHMFMLPDYDSFEKLFVALGASL” as the sequence, how does the “soluble on expression in E. coli” value read?
The value was “soluble”.

Which “soluble on expression in E. coli” value does the source give for “MGSDKIHHHHHHMNETPLRLLEMLTQTREDLWRAAQALTERGVTRIILTGSGTSYHGALTARTFMQRWCALPVDVCWPFMLDDETLARSGKALVVGISQGGGSLSTLAAMERARNVGHITASMAGVAPATIDRAADYILTVPCGEETAGAKTKGYHCTVLNLMLLALAVAGQQQRLDGEQRRSLLLRMEKTFNHLPALVTASQAWAQTNALALRDSADIRLTGPATLFGTVQEGALKMLETLRCPVSGYEFEEFIHGIYNAFNAQSALIMLDPQPDARQDRLAQILGEWTPSIYRIGPQVENNGLNLNFPFVNDEDFAVFEYIIPLQMLCAILPPQKGINPAIPKDPQFHQKMKSKQEI” here?
Its value is “not soluble”.

With “MKLTDRWFTSISEDEKGNIVFVNGRLELDEFRLSGKLKIRIEIRWPYEADEQGLPTESAGKRIEEIELLIRKAMEKDKLAIMTGNYTGGGTKYWVYYARTERVFGERLNEVLAPYETLPLEIECEVDTDWEEYLDMLSMKDENSI” as the sequence, how does the “soluble on expression in E. coli” value read?
The value was “not soluble”.

With “MSLIKFNIAQWRAWAPGLESVDAWQAWSRQPALPENSDAAPDVSFLPAMQRRRLSRLARMAFSVGWPLAEGLEQLPLVFISRHGETPRTFEILSDLAAEQPLSPTQFSLSVHNAVIGLWSIMRGETSEMTALAAAGDGLEHGLLEAATLLADGAPHVLLVITEEQPPEAYASWIDDVPFPYALGLLLTPGDDWQLSLGSHDGQTPRAQWPHALNLLRTLLGAQTFCQHAWMNRVWTWQRNHEGHHHHHH” as the sequence, how does the “soluble on expression in E. coli” value read?
The value was “soluble”.

For “MSTIIMDLCSYTRLGLTGYLLSRGVKKREINDIETVDDLAIACDSQRPSVVFINEDCFIHDASNSQRIKLIINQHPNTLFIVFMAIANVHFDEYLLVRKNLLISSKSIKPESLDDILGDILKKETTITSFLNMPTLSLSRTESSMLRMWMAGQGTIQISDQMNIKAKTVSSHKGNIKRKIKTHNKQVIYHVVRLTDNVTNGIFVNMR”, which “soluble on expression in E. coli” value is on record?
The value was “not soluble”.

With “SLKPIMYNEKRGVSVMDIKLQQTQILKPQLTQELKQAITLLGYNSAELAGYIDELSLENPLIERKETDTPPLSYHKTNKNRMKEQDVSQQIRLTRKTLQDSLKQQAIDMKLSDAEKKIFNYLIYSLDSNGYLKEDIQAAADHVSASLEETEAVLAKLQSLEPAGIGARSLQECILLQLRRLPERNEQAEWIAGAYFELFARKNWKALTLQTGIPLKDIQDIFDMISALDPRPGLRYAHEEPGFYVEPDIFNTVKNGIIQARLNSRSFPDIQLHAHYRPMLSAAGCRDVQQVPF” as the sequence, how does the “soluble on expression in E. coli” value read?
The value was “soluble”.

For “MSAPLKHPNAVVLQPPTVTISPLIRFGRYAALSLGVVYGFFRLRQIREYHADIREWDHEKAVAAAEEAAKKKKWLAKDEMRYLMQVVNIPFEEGVKQFGVADLYKED”, which “soluble on expression in E. coli” value is on record?
The value was “not soluble”.

Which “soluble on expression in E. coli” value does the source give for “MITLPTGTKIWIIAGITDMRCGFNGLASKVQNTLKDDPFSGHIFVFRGRSGKMVKILWADRDGLCLFAKRLAGDPGRESAPDASSVIHATGGDRVATSQTDRTAWHPDITRDKTRE” here?
The value was “not soluble”.

With “MGYRNLPPHLNPLAPLALDDPPGWLTSFKLRRLTADQCASLLAEANRRRLIASRPVADSEGSCPLRNVVRVANFGSVQLSSSFLASCPLALSSALYIEQQAKPLTRQLMASDLRQIDHLGSFACRNIYHRQQARRSEHATADALDVSGFRLADGRRVSVLQGWRSETSRPWLAALLSSSCHYFGNALGPEYNAAHANHFHFGMRGQGFCFLEHHHHHH” as the sequence, how does the “soluble on expression in E. coli” value read?
The value was “not soluble”.

For “MESGHRFDAQTLHSFIQAVFRQMGSEEQEAKLVADHLIAANLAGHDSHGIGMIPSYVRSWSQGHLQINHHAKTVKEAGAAVTLDGDRAFGQVAAHEAMALGIEKAHQHGIAAVALHNSHHIGRIGYWAEQCAAAGFVSIHFVSVVGIPMVAPFHGRDSRFGTNPFCVVFPRKDNFPLLLDYATSAIAFGKTRVAWHKGVPVPPGCLIDVNGVPTTNPAVMQESPLGSLLTFAEHKGYALAAMCEILGGALSGGKTTHQETLQTSPDAILNCMTTIIINPELFGAPDCNAQTEAFAEWVKASPHDDDKPILLPGEWEVNTRRERQKQGIPLDAGSWQAICDAARQIGMPEETLQAFCQQLAS”, which “soluble on expression in E. coli” value is on record?
Its value is “soluble”.

With “YETQSREKQTRQQHEHMLMIVSNLYEETVHLKKTLKTTEKVTNDSYQLYREMKGKDVQLSGRILRLAGEIHEVKKDNQRIFAGLSKLISNESLRDYMRASDLLQLVIRMNEKYAEALGKQIDFYCSIEGEHDEYHVFIVLSIINNLTANAVEAMDEEGMVSLRLRKPNESMVEFQVEDNGPGISEKIGDIVFDPGFTSKYDEFGTPSTGIGLSYVKEIVTELEGDITFDNQQRGVVFAIRLPVRHLIQKG” as the sequence, how does the “soluble on expression in E. coli” value read?
The value was “not soluble”.

With “MTATQGKCPVMHGGATTVNISTAEWWPKALNLDILSQHDRKTNPMGPDFNYQEEVQKLDAALKQDLQALMTDSQDWWPADWGHYGGLMIRLTWHAAGTYRIADGRGGAGTGNQRFAPLNSWPDNTNLDKARRLLWPIKQKYGNKLSWADLIAYAGTIAYESMGLKTFGFAFGREDIWHPEKDIYWGPEKEWFPPSTNPNSRYTGDRELENPLAAVTMGLIYVNPEGVDGNPDPLKTAHDVRVTFARMAMNDEETVALTAGGHTVGKCHGNGNAALLGPEPEGADVEDQGLGWINKTQSGIGRNAVTSGLEGAWTPHPTQWDNGYFAVCSLNYDWELKKNPAGAWQWEPINPREEDLPVDVEDPSIRRNLVMTDADMAMKMDPEYRKISERFYQDPAYFADVFARAWFKLTHRDMGPKARYIGPDVPQEDLIWQDPIPAGNRNYDVQAVKDRIAASGLSISELVSTAWDSARTYRNSDKRGGANGARIRLAPQKDWEGNEPDRLPKVLAVLEGISAATGATVADVIVLAGNVGVEQKARAAGVEIVLPFAPGRGDATAEQTDTESFAVLEPIHDAIATGSSRTMRQRLKNCCLIATQLLGLTAPEMTVLIGGLRVLGTNHGGTKHVVFTDREGVLTNDFFVNLTDMNYLWKPAGKNLYEICDRKTNQVKWTATRVDLVFGSNSILRAYSELYAQDDNKEKFVRDFVAAWTKVMNADRFDLD” as the sequence, how does the “soluble on expression in E. coli” value read?
Its value is “soluble”.

Which “soluble on expression in E. coli” value does the source give for “MRKNVSDLEYTTWFAPVKPLGVQEGSLLLGVRNSFTKDWFRDHYLELLLAALRSLGAEHPQVEFQVLPAAQDALLLPNDPPPAPEAAAPTPKTKAAPTPPPSTPGDNRKTLNPKYTFENFVVGPNNNLAHAAALAVAESPGKAYNPLFIYGDVGLGKTHLMHAVGHYLAERFPEKRIEYVSTETFTNELINAIRDDKTTQFRNRYRSVDLLLVDDIQFLAGKERTQEEFFHTFNALYESNKQIILSSDRPPKDIQTLEGRLRSRFEWGLITDIQSPEYETRVAILKMNAEQGHITIPQEVLELIARQVTSNIRELEGALMRVVAFASLNNVPFSRAAAAKALSNVFAPQEAKVEMTDVLRQVAAHYGTTPDLIRGSGRARDIVVPRQVAQYLIRALTDHSLPEIGQFFGRDHSTVMHAVSKITEQMGKDPELAATVNTLRNRIQGKEEEEEVGALEHHHHHH” here?
Its value is “not soluble”.

Which “soluble on expression in E. coli” value does the source give for “MSLVTKEREQIYILDGDIPFLAQRARLEANFTMEAKAHIQLFHQYFFNLPPDNDYIKWTVGKAMYMADGTALKQKQALDENGFYSDIISSSAVCTIMCDSIQFDEHERKFTYYGTQLIKRRTKDLKRSMITTGYIESVPRTRNNPHGLLITNWRTLENKDLDYEGHHHHHH” here?
The value was “soluble”.

Which “soluble on expression in E. coli” value does the source give for “MGSDKIHHHHHHASCEKDPDMGKLDDNYLVYTNYDKQANFKDFSTFYLADKILVISDSKEPEYLEGEGAEQILAAYTENMEAKGYQPAADKESADLGIQVSYIASTYYFTGYTQPEWWWGYPGYWGPSYWGNWGGWYYPYAVTYSYSTNSFITEMVNLKADEGEGKKLPVVWTSYLTGFETGSKAINRTLAIEAVNQSFTQSPYLTNK” here?
Its value is “not soluble”.

Which “soluble on expression in E. coli” value does the source give for “MSEAKDNGSRDEVLVPHKNCRKNTTVPGKKGEEKSLAPVFAEKLISPSRRGAKLKDRESHQENEDRNSELDQDEEDKESFCRGFPMSGCELETSCCVCHSTALGERFC” here?
The value was “soluble”.

With “MRKWQCVVCGFIYDEALGLPEEGIPAGTRWEDIPADWVCPDCGVGKIDFEMIEIA” as the sequence, how does the “soluble on expression in E. coli” value read?
The value was “soluble”.

From the DeepSol protein solubility set
